Results taken from the supplement of paper PMC10065799, “High-throughput profiling of sequence recognition by tyrosine kinases and SH2 domains using bacterial peptide display” (eLife, 2023).

How the values were obtained:
EPHB2 = EPHB2 (UniProt P29323); test: phosphorylation enrichment, bacterial display (enrichment ratio); higher = better substrate or ligand; peptides without Tyr show the background
MERTK = MERTK (UniProt Q12866); test: as above
Hck = Hck (UniProt P08631); test: as above
c-Src = test: as above
Fes = Fes (UniProt P07332); test: as above
FGFR1 = FGFR1 (UniProt P11362); test: as above
Fer (mouse) = test: as above
EPHB1 = EPHB1 (UniProt P54762); test: as above
c-Abl (mouse) = test: as above
Jak2 = Jak2 (UniProt O60674); test: as above
FGFR3 = FGFR3 (UniProt P22607); test: as above
AncSZ = test: as above
Fyn = Fyn (UniProt P06241); test: as above
c-Src SH2 = test: SH2 binding enrichment of the phosphorylated peptide, bacterial display (enrichment ratio); higher = better substrate or ligand; peptides without Tyr show the background
Grb2 SH2 = Grb2 SH2 (UniProt P62993); test: as above
SHP2-C SH2 = test: as above
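For SH2 binding enrichment of the phosphorylated peptide, bacterial display in this document: peptide library displayed on the E. coli surface as eCPX fusions, selected cells deep-sequenced, score is each peptide's frequency after selection divided by its frequency in the input.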
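For phosphorylation enrichment, bacterial display in this document: 11-residue human phosphosite peptides and single-mutation variants displayed on the E. coli surface, counted by deep sequencing, each peptide's frequency after selection divided by its frequency in the unselected input library; frequency after pTyr selection over input frequency; kinase dosed for 20-30% of maximal phosphorylation in three min.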

Chain of Jak2 (O60674 whole entry, looked up): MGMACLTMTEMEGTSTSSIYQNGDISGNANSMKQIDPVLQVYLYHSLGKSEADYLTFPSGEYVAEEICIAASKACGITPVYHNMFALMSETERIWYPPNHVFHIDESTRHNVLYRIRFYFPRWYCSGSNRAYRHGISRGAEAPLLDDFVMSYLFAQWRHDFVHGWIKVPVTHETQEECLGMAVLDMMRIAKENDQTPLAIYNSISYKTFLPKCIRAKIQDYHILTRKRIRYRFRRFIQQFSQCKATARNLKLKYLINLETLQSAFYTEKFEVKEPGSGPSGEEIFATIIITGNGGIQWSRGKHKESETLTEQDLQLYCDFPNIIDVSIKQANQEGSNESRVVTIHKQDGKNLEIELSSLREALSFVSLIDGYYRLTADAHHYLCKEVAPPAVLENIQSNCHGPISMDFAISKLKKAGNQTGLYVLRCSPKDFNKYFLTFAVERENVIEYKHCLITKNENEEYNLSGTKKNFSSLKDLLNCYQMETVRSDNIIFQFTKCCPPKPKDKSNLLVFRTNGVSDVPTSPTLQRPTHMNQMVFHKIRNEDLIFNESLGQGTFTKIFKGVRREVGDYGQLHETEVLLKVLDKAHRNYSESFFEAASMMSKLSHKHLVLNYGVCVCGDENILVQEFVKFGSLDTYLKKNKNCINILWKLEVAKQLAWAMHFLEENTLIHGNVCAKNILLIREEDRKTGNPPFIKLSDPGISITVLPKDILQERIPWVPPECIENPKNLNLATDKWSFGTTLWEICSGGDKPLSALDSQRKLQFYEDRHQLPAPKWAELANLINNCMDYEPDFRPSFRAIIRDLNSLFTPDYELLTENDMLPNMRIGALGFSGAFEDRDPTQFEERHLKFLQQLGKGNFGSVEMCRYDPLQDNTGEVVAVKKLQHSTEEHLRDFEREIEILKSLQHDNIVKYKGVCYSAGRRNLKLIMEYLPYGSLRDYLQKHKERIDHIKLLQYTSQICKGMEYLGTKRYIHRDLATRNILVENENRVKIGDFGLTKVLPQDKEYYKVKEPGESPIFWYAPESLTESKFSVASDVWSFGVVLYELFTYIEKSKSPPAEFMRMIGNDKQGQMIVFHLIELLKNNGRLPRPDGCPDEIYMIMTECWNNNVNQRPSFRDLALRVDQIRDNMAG
Chain of FGFR3 (P22607 whole entry, looked up): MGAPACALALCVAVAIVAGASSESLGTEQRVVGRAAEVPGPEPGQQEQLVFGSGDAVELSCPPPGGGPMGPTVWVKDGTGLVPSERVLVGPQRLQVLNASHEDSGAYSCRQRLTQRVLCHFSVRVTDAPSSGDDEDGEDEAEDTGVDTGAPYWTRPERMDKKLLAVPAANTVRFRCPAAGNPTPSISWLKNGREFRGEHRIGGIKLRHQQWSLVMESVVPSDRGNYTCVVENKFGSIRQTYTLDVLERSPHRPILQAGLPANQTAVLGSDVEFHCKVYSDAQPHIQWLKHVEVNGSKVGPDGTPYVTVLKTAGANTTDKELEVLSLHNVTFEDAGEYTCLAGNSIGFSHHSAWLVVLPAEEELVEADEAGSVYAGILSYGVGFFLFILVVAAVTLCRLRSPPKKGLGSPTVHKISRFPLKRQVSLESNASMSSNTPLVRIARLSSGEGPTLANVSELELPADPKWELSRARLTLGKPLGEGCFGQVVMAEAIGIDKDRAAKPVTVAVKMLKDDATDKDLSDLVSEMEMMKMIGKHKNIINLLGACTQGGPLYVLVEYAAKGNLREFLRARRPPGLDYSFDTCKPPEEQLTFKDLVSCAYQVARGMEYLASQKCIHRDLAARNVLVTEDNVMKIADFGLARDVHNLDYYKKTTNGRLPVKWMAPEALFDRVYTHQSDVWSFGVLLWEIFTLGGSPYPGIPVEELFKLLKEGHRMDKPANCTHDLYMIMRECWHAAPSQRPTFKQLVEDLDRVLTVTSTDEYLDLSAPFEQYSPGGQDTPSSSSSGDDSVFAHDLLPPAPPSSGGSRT
Chain of FGFR1 (P11362 whole entry, looked up): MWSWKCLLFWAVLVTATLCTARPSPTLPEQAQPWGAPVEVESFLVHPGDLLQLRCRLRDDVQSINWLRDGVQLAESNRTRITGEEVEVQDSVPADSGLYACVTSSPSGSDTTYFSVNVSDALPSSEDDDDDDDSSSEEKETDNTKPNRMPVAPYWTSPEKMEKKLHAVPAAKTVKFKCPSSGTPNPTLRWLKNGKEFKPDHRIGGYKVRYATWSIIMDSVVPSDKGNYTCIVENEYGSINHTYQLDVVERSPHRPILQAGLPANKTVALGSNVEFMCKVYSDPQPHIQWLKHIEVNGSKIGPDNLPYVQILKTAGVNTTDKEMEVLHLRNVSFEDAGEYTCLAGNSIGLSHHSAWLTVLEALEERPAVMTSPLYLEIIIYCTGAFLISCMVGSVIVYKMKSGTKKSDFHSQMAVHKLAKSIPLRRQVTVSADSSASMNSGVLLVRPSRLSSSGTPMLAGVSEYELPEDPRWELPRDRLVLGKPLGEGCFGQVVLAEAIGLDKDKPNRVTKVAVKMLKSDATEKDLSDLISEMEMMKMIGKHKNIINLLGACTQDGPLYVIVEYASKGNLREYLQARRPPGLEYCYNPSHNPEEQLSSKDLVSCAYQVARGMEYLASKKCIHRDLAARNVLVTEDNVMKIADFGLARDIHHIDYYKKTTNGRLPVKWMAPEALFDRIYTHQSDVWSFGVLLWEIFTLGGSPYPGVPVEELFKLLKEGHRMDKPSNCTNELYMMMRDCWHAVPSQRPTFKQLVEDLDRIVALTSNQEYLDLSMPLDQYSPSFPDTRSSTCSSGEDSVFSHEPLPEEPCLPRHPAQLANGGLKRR
Chain of Fyn (P06241 whole entry, looked up): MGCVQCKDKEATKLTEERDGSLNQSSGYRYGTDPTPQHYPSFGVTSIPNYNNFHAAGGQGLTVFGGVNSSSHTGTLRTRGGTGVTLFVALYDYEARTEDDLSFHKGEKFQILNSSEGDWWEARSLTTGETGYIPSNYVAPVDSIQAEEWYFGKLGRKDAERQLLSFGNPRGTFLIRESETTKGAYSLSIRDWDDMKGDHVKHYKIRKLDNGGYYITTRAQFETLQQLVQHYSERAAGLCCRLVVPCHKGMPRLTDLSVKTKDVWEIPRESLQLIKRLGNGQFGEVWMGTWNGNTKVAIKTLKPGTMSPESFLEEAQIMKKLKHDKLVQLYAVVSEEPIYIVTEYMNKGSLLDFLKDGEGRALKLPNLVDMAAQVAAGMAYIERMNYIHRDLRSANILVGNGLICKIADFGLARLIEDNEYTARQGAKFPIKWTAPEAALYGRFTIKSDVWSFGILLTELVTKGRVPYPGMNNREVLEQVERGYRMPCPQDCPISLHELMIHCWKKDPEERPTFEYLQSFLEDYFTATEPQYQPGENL
Chain of EPHB1 (P54762 whole entry, looked up): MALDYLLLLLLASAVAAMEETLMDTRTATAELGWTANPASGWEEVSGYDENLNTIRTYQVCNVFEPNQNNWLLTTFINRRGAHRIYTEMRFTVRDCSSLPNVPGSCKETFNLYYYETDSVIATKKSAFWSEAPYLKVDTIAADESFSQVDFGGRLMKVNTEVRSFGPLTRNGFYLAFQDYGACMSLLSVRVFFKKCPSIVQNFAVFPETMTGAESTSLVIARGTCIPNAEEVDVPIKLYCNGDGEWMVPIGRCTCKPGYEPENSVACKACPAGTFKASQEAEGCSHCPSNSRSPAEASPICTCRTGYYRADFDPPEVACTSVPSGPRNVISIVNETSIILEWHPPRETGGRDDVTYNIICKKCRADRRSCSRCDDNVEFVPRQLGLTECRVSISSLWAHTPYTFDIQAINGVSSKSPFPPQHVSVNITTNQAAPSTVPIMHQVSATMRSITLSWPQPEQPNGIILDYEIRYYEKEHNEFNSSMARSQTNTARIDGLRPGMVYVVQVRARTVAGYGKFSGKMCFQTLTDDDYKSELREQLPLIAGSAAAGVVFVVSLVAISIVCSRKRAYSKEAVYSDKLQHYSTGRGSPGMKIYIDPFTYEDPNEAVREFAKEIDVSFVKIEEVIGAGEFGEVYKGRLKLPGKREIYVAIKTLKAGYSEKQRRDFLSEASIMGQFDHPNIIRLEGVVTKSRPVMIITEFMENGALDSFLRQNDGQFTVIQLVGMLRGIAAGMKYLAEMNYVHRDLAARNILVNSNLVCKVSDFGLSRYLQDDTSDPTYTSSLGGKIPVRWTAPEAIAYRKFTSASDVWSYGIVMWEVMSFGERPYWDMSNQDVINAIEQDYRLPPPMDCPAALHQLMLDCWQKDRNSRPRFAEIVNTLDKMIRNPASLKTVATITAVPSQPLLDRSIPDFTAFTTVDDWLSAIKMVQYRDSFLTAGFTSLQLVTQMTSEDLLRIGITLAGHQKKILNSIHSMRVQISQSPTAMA
Chain of Hck (P08631 whole entry, looked up): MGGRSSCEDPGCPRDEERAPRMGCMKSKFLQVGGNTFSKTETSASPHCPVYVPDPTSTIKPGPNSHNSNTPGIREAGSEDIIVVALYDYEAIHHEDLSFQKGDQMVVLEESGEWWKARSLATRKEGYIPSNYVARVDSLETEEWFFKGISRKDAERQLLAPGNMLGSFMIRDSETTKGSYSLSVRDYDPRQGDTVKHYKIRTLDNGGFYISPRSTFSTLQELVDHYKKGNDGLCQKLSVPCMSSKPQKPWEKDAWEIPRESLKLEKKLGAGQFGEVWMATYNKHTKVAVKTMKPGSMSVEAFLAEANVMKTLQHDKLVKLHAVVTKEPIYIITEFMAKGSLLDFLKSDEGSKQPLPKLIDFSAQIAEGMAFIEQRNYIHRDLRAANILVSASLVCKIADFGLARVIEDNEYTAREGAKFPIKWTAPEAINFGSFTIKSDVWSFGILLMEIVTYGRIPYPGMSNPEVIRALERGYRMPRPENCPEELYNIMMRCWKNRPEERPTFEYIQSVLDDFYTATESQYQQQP
Chain of Grb2 SH2 (P62993 whole entry, looked up): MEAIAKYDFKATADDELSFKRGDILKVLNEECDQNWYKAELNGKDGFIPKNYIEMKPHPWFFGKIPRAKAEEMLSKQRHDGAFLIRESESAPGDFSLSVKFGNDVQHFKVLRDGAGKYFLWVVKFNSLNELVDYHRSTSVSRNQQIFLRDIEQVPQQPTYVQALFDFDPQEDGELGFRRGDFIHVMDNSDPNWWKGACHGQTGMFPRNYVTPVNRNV

Sequence | phosphorylation enrichment (EPHB2) | phosphorylation enrichment (MERTK) | phosphorylation enrichment (Hck) | phosphorylation enrichment (c-Src) | phosphorylation enrichment (Fes) | phosphorylation enrichment (FGFR1) | phosphorylation enrichment (Fer (mouse)) | phosphorylation enrichment (EPHB1) | phosphorylation enrichment (c-Abl (mouse)) | phosphorylation enrichment (Jak2) | phosphorylation enrichment (FGFR3) | phosphorylation enrichment (AncSZ) | phosphorylation enrichment (Fyn) | SH2 binding enrichment (c-Src SH2) | SH2 binding enrichment (Grb2 SH2) | SH2 binding enrichment (SHP2-C SH2)
KQQEIYQELTQ [CD209_Y239] | 3.03 | 4.81 | 6.43 | 5.59 | 1.07 | 3.1 | 3.56 | 5.8 | 1.77 | 0.917 | 2.3 | 1.35 | 6.33 | 0.585 | 1.14 | 0.673
KRAIGYFSATS [FAM120A_Y327_YF] | 0.426 | 0.362 | 0.492 | 0.364 | 0.612 | 0.381 | 0.327 | 0.345 | 0.362 | 0.612 | 0.467 | 0.543 | 0.382 | 0.553 | 1.02 | 0.851
KRLKDYLMVLQ [USP25_Y425_T427M] | 0.545 | 0.428 | 0.515 | 0.444 | 0.791 | 1.5 | 0.507 | 0.503 | 0.5 | 0.595 | 0.93 | 0.661 | 0.456 | 1.1 | 1.61 | 1.36
KSIDEYLKLVG [RASAL2_Y381_E379D] | 0.596 | 0.34 | 0.489 | 0.37 | 0.73 | 0.465 | 0.374 | 0.378 | 0.449 | 0.761 | 0.445 | 0.843 | 0.406 | 0.556 | 0.992 | 0.797
KSIQLYDTPFE [SHB_Y297_G293S_YF] | 18 | 6.02 | 2.17 | 0.784 | 1 | 0.518 | 3.47 | 12.7 | 1.29 | 0.9 | 0.683 | 1.18 | 1.01 | 2.03 | 0.766 | 0.802
KSLSQYLEMDK [CAGE1_Y438_V435L] | 0.483 | 0.446 | 0.415 | 0.4 | 0.836 | 0.545 | 0.348 | 0.382 | 0.56 | 0.797 | 0.487 | 0.793 | 0.445 | 1.4 | 0.709 | 0.837
KSNSDYVDVLP [SH2D1B_Y127_N122K] | 1.45 | 0.43 | 0.477 | 0.449 | 0.887 | 2.42 | 0.583 | 3.1 | 0.531 | 0.705 | 1.68 | 1.11 | 0.419 | 0.475 | 0.757 | 0.479
KSRQIYDAFIM [GRK3_Y109_R104K_YF] | 6.65 | 11.7 | 10.4 | 9.72 | 0.941 | 0.576 | 14.4 | 4.7 | 16.5 | 0.799 | 0.6 | 0.764 | 13 | 0.477 | 0.703 | 0.947
KTGDYYDLYGG [PTPN11_Y63_N58K] | 7.72 | 3.04 | 5.07 | 3.86 | 1.09 | 16.8 | 0.829 | 9.65 | 0.813 | 2.26 | 13.8 | 1.86 | 4.48 | 0.916 | 0.858 | 0.665
KTTILHKLKLG [ARF1_Y35_Y35H] | 0.509 | 0.35 | 0.39 | 0.326 | 0.739 | 0.439 | 0.435 | 0.4 | 0.591 | 0.548 | 0.518 | 0.584 | 0.333 | 1.46 | 1.5 | 1.24
KTVQDYLKKFF [MMP8_Y36_E38K_YF] | 0.371 | 0.494 | 0.494 | 0.488 | 1.05 | 0.523 | 0.563 | 0.473 | 0.66 | 0.795 | 0.545 | 1.07 | 0.575 | 0.42 | 0.649 | 0.56
KVALPYKPFFF [POLE_Y100_YF] | 0.715 | 0.41 | 0.557 | 0.547 | 0.855 | 0.375 | 0.455 | 0.42 | 0.656 | 0.674 | 0.537 | 0.743 | 0.44 | 1.12 | 1.3 | 1.28
KVKEQYQDVPM [PKP2_Y659] | 0.431 | 0.401 | 0.48 | 0.395 | 0.717 | 0.509 | 0.36 | 0.455 | 0.603 | 0.632 | 0.48 | 0.667 | 0.446 | 0.728 | 0.801 | 0.776
KYRREYILSLE [GPC3_Y299_W296R] | 0.465 | 0.576 | 0.49 | 0.613 | 0.698 | 0.427 | 0.534 | 0.364 | 0.511 | 0.628 | 0.491 | 0.754 | 0.468 | 0.374 | 0.774 | 0.606
LAARYYNWVCF [FLT4_Y1231_S1235C] | 0.615 | 1.04 | 0.588 | 0.512 | 1.51 | 1.96 | 1.39 | 0.899 | 0.977 | 1.11 | 1.94 | 1.37 | 0.777 | 1.07 | 4.36 | 0.752
LARDIYKNDYY [ROS1_Y2110] | 0.782 | 0.426 | 0.712 | 1.42 | 0.828 | 3.15 | 0.369 | 0.953 | 0.462 | 0.752 | 2.19 | 1.1 | 0.854 | 0.881 | 1.02 | 0.722
LASLIYNFILF [AQP6_Y231_V234I] | 1.28 | 14.7 | 11.5 | 12.7 | 3.72 | 4.45 | 19 | 2.51 | 5.49 | 2.98 | 4.49 | 2.67 | 13.3 | 1.02 | 0.993 | 1.04

Sequence | phosphorylation enrichment (EPHB2) | phosphorylation enrichment (MERTK) | phosphorylation enrichment (Hck) | phosphorylation enrichment (c-Src) | phosphorylation enrichment (Fes) | phosphorylation enrichment (FGFR1) | phosphorylation enrichment (Fer (mouse)) | phosphorylation enrichment (EPHB1) | phosphorylation enrichment (c-Abl (mouse)) | phosphorylation enrichment (Jak2) | phosphorylation enrichment (FGFR3) | phosphorylation enrichment (AncSZ) | phosphorylation enrichment (Fyn) | SH2 binding enrichment (c-Src SH2) | SH2 binding enrichment (Grb2 SH2) | SH2 binding enrichment (SHP2-C SH2)
LASSEYPVQRR [GALK1_Y236_R239Q] | 0.308 | 0.554 | 0.761 | 0.707 | 1.32 | 0.58 | 0.981 | 0.381 | 1.03 | 1.06 | 1.17 | 0.732 | 1.07 | 0.256 | 1.16 | 0.794
LDAGEYCVPRG [BEX1_Y43] | 3.87 | 0.866 | 1.57 | 0.816 | 2.01 | 1.32 | 1.47 | 3.38 | 3.62 | 1.05 | 1.73 | 8.78 | 1.26 | 0.453 | 0.844 | 0.715
LDYNEYFRYLN [HPRT1_Y198_D201Y] | 1.39 | 0.573 | 1.41 | 2.04 | 1.23 | 3.33 | 0.635 | 0.858 | 1.81 | 7.21 | 2.1 | 1.79 | 1.45 | 0.765 | 2.06 | 1.18
LEISPYMLSGP [LRRK2_Y1718_R1723P] | 0.633 | 1.97 | 1.1 | 3.58 | 1.16 | 0.921 | 2.63 | 0.753 | 0.866 | 1.35 | 0.983 | 1.53 | 3.67 | 0.517 | 0.904 | 0.465
LEITWYPFDME [RIPOR2_Y316_V320M] | 0.792 | 0.608 | 0.66 | 0.554 | 2.31 | 0.698 | 0.751 | 1.21 | 1.32 | 2.05 | 1.48 | 1.85 | 0.594 | 0.591 | 0.951 | 1.04
LEPHIYAVADV [MYO9A_Y216] | 1.2 | 1.28 | 1.6 | 2.11 | 1.02 | 0.469 | 1.64 | 0.822 | 14.1 | 0.741 | 0.616 | 0.926 | 1.74 | 3.29 | 0.979 | 0.789
LEQDEYALRSH [HADHB_Y244] | 1.69 | 0.724 | 1.08 | 0.96 | 1.75 | 0.891 | 0.669 | 1.01 | 1.9 | 2.54 | 1.08 | 1.98 | 0.793 | 0.504 | 0.755 | 0.576
LEVETYRRLLD [KRT12_Y429_I426V] | 0.407 | 0.344 | 0.511 | 0.349 | 0.797 | 0.396 | 0.439 | 0.491 | 0.551 | 0.749 | 0.625 | 0.676 | 0.421 | 0.467 | 0.843 | 0.64
LFDHIYTTQSD [RET_Y928] | 2 | 1.96 | 5.93 | 4.92 | 3.19 | 2.9 | 6.22 | 1.28 | 0.821 | 1.81 | 3.56 | 2.46 | 7.45 | 0.583 | 0.925 | 0.796
LGIDRYHAIVY [NPSR1_Y147_S143G] | 0.523 | 0.446 | 0.683 | 0.621 | 0.814 | 2.82 | 0.408 | 0.443 | 0.437 | 0.775 | 1.84 | 0.717 | 0.442 | 5.09 | 0.823 | 0.818
LGLTVYADCLA [ABCA4_Y2063] | 0.657 | 0.369 | 0.515 | 0.473 | 1.39 | 0.618 | 0.584 | 0.686 | 0.815 | 0.992 | 0.78 | 1.14 | 0.589 | 0.564 | 0.918 | 0.553
LGSWTYPKTVS [ROS1_Y144_T145P] | 0.432 | 0.664 | 0.577 | 0.415 | 1.12 | 0.842 | 0.453 | 0.402 | 0.732 | 0.734 | 0.604 | 0.85 | 0.741 | 0.496 | 0.813 | 0.805
LIPIKYKAMKK [MYD88_Y257] | 0.384 | 0.413 | 0.342 | 0.302 | 0.96 | 0.755 | 0.405 | 0.55 | 0.325 | 0.297 | 0.92 | 0.388 | 0.489 | 0.602 | 0.908 | 0.974
LIYTNYEAGKD [GSTP1_Y112] | 8.11 | 7.41 | 5.36 | 7.03 | 1.01 | 1.78 | 5.02 | 6.63 | 7.84 | 0.88 | 1.64 | 1.23 | 7.8 | 0.503 | 1.09 | 0.568
LKLWDYRRGRC [WDR5B_Y239_S240R] | 0.857 | 0.708 | 0.541 | 0.672 | 0.757 | 0.681 | 0.605 | 0.664 | 0.728 | 0.683 | 0.699 | 0.871 | 0.604 | 0.415 | 0.705 | 0.399
LKVKAYRFSIS [LCT_Y974] | 0.498 | 0.493 | 0.6 | 0.463 | 1.22 | 0.9 | 0.52 | 0.672 | 0.824 | 1.3 | 0.835 | 0.911 | 0.648 | 0.713 | 1.25 | 0.641
